This note sets out measurements from US11976099B2, “Compositions and methods for treatment of bone associated diseases” (THE NATIONAL INSTITUTE FOR BIOTECHNOLOGY IN THE NEGEV LTD., priority 2016, dated 2024).

The test system of assay [1] is MDA-MB-231 breast cancer cells. As to the kind of experiment: Direct cell binding assay, flow cytometry, MDA-MB-231. It counts as cell-based, human. The settings on record: for direct cell binding: 1 μM, 2.5 μM and 7.5 μM labeled protein; for relative cell binding ability: MDA-MB-231. The method, then: M-CSFM and two variants of M-CSFRGD (4.22 and 5.6) were labeled with a molar ratio of 1:1 of DyLight™ 488 NHS Ester (Thermo Fisher Scientific, USA) and the purified protein. The solution was incubated for 1 h at room temperature and the residual unbound dye was washed three times with Vivaspin (GE Healthcare life sciences, UK) with a 3,000 Da cutoff. […] MDA-MB-231 breast cancer cells were used for direct cell binding of the purified proteins. Cells were plated at a density of 10^5 per well in 96-well plates and were washed with […] of PBSA 0.1%. The cells were centrifuged at 150 g for 5 min, and the supernatant was removed; this step was repeated twice. Then, the labeled M-CSFRGD protein variants and the M-CSFM monospecific control were added in IBB+1% BSA to the cells at different concentrations (1, 2.5 and 7.5 μM) in a total volume of 100 μl and incubated at 4° C. with gentle agitation for 2 h. For c-FMS expression, the cells were stained with PE-anti human CD115 (BioLegend, USA) at a dilution of 1:50 and for αvβ3 integrin expression with FITC-anti human β3 integrin (BioLegend, USA) at a dilution of 1:25 for 30 min. Then, the cells were washed twice as described above and analyzed with Accuri C6 flow cytometry analyzer (BD Biosciences, USA). The mean fluorescence of the cells was subtracted from the other samples. The experiment was repeated three times at each concentration.
Assays for direct cell binding were conducted on breast cancer cell line MDA-MB-231 and murine primary cells with flow cytometer. MDA-MB-231 was used because the cells express αvβ3 integrin and c-FMS on the cell membrane, a protein expression pattern that imitates the osteoclast state just before reaching full differentiation and maturation. […] Murine primary cells that were obtained from bone marrow were tested for binding without any induction of differentiation (t=0). Such cells express high levels of c-FMS and low levels of αvβ3 integrin (FIGS. 11A and 11B), a state that imitates an early osteoclast differentiation stage.
A general note: Flow cytometry measures light scatter and fluorescence of single cells or particles in a stream.

The target of a further assay is human c-FMS (Homo sapiens, UniProt P07333). As to the kind of experiment: c-FMS phosphorylation assay in CD14+ monocytes (western blot). It counts as cell-based. More on the design: host or cells: human peripheral blood CD14+ monocytes. Conditions: CD14+ cells; 0.5 nM human M-CSFWT + 100 nM variant. The method, then:
Phosphorylation assay—The experiment was performed on two cell types, BMMs and human peripheral blood CD14^+ monocytes, as follows: (i) BMMs from wild-type C57BL6 mice were purified by flushing the bone marrow from the femur and tibia as previously described (Levaot, N., Simoncic, P. D., Dimitriou, I.D., Scoffer, A., La Rose, J., Ng, A. H. M. et al. (2011) J. Clin. Invest. 121, 3244-3257). The cells were treated with ACK red cells lysis buffer (ThermoFisher Scientific, USA) and grown in complete α-MEM growth medium (Sigma-Aldrich, USA) containing 10% fetal bovine serum (FBS) (selected to not contain LPS to prevent macrophage differentiation), penicillin, streptomycin and L-glutamine. Recombinant murine M-CSF was added at a concentration of 40 ng/ml (Peprotech, Israel) for three days at 37° C. to induce adhesion and proliferation of monocytes. Then, 7×10^5 cells were transferred into a 6-well plate with complete α-MEM and 20 ng/ml murine M-CSF and RANKL (R&D Systems, USA) for 48 h. (ii) CD 14^+ monocytes (Lonza, Switzerland) were grown in complete α-MEM medium for five days in the presence of human M-CSF (20 ng/mL). […] The images were quantified using ImageJ. The quantified intensity values of the phosphorylated c-FMS for each sample were divided by the total c-FMS intensity, and then by the β-actin expression intensity. […]
In general terms: In western blotting, separated proteins are transferred to a membrane and probed.

human c-FMS, sequence (P07333 20-972): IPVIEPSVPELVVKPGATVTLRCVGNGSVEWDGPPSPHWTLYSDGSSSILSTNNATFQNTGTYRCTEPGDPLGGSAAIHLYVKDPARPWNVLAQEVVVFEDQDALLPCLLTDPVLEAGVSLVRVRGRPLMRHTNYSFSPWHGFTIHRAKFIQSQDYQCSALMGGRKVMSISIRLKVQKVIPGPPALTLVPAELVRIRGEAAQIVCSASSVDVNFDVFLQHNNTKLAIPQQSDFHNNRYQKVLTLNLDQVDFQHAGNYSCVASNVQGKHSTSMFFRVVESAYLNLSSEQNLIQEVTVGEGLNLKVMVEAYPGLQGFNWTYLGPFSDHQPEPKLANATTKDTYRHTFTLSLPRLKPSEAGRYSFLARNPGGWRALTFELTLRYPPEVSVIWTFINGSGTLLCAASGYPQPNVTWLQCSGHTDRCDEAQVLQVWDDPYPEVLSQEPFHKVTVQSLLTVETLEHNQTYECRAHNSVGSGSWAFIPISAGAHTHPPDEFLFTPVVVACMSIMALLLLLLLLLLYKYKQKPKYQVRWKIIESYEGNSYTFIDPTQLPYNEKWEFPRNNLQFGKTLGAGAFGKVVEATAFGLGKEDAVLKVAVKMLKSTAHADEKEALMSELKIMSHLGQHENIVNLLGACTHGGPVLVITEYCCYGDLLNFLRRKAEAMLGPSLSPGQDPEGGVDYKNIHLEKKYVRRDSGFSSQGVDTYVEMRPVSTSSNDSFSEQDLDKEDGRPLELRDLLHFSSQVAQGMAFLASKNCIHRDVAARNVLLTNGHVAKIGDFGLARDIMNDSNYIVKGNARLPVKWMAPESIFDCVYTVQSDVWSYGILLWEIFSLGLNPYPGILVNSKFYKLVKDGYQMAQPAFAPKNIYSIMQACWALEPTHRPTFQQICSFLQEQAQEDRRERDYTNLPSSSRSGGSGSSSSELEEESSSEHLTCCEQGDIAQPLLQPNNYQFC

B1: 5.6: bispecific M-CSFRGD variant from sort five; M-CSFM loop replaced by XXXRGDXXX motif; binds c-FMS and αvβ3 integrin (protein)
chain: EEVSEYCSHMIGSGHLQSLQRLIDTYPRGDMCSITFEFVDQEQLKDPVCYLKKAFLLVQDIMEDTMRFRDNTPNAIAIVQLQELSLRLKSCFTKDYEEHDKACVRTFYETPLQLLEKVKNVFNETKNLLDKDWNIFSKNCNNSFAECSSQGHERQSEGS
modifications: left off: small tags and cut ends
In the case of B1, in assay [1], the direct cell binding result is reported as “showed binding” and the “relative cell binding ability” value is “best binding ability”.

B2: M-CSFM: 158 amino acid M-CSF with cysteine at position 31 replaced by serine (SEQ ID NO: 2) (protein)
chain: EEVSEYCSHMIGSGHLQSLQRLIDSQMETSSQITFEFVDQEQLKDPVCYLKKAFLLVQDIMEDTMRFRDNTPNAIAIVQLQELSLRLKSCFTKDYEEHDKACVRTFYETPLQLLEKVKNVFNETKNLLDKDWNIFSKNCNNSFAECSSQGHERQSEGS
As to B2, in assay [1], the direct cell binding entry is “showed binding” and the “relative cell binding ability” value was “weakest binder”. In the assay with human c-FMS, the c-FMS phosphorylation level result is reported as “acted as an agonist, inducing phosphorylation”.

B3: M-CSFC31S,M27R: M-CSF double mutant containing both C31S and M27R; monomeric, monospecific c-FMS antagonist (protein)
chain: EEVSEYCSHMIGSGHLQSLQRLIDSQRETSSQITFEFVDQEQLKDPVCYLKKAFLLVQDIMEDTMRFRDNTPNAIAIVQLQELSLRLKSCFTKDYEEHDKACVRTFYETPLQLLEKVKNVFNETKNLLDKDWNIFSKNCNNSFAECSSQGHERQSEGS
For B3, in the assay with human c-FMS, the c-FMS phosphorylation level entry is “decreased phosphorylation of c-FMS”.
